Measurements from article PMC5970976.

Biological target: CHIKV virus-like particles (VLPs, strain 37997) (chikungunya virus (strain 37997))
Experiment: SPR

Chain of CHIKV virus-like particles (VLPs, strain 37997) (chikungunya virus (strain 37997)) (Q5XXP3 326-748 limits assumed, chain 1 of 2): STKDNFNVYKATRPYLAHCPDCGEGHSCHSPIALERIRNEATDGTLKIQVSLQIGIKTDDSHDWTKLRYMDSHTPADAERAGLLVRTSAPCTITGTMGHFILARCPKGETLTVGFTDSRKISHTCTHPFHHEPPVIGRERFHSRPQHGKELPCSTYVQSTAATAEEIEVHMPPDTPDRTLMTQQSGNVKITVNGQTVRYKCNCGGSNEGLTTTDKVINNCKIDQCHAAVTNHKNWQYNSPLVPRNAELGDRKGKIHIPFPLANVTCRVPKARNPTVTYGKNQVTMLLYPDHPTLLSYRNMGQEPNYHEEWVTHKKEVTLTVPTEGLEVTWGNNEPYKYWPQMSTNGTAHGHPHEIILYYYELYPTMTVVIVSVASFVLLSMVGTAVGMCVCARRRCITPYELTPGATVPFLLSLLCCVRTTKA
Chain of CHIKV virus-like particles (VLPs, strain 37997) (chikungunya virus (strain 37997)) (Q5XXP3 810-1248 limits assumed, chain 2 of 2): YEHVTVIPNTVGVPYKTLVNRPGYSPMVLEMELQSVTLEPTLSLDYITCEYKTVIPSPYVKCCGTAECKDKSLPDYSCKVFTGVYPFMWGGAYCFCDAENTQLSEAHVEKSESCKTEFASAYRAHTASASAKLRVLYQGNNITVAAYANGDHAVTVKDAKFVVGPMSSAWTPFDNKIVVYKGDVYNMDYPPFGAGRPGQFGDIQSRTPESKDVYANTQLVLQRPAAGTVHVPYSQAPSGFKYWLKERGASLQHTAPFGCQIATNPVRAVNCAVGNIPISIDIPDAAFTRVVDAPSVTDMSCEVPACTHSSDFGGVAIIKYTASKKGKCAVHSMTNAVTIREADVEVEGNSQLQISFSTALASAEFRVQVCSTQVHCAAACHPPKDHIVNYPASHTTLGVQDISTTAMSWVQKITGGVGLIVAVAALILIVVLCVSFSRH

Mxra8 cleaved from the IgG backbone (recombinant Mxra8 from Mxra8-HRV-Fc) (from UniProt Q9DBV4 22-336) (domain or fragment)
Kd: 200 nM
